From publication PMC9578707, “Identification of orphan ligand-receptor relationships using a cell-based CRISPRa enrichment screening platform” (eLife, 2022) come the findings set out here.

What is called Kd is the equilibrium constant for the complex coming apart. A higher Kd goes with weaker binding.

The target in test [1] is T1, MFRP-ECD (membrane Frizzled-related protein, extracellular domain) (human, UniProt Q9BY79 91-579, biotin (BirA biotinylation; captured on streptavidin chip)).
T1 construct: membrane Frizzled-related protein (MFRP), human, extracellular domain; source: Expi293F, purified (Ni-NTA, SEC), biotinylated in vitro with BirA
T1 sequence (looked up): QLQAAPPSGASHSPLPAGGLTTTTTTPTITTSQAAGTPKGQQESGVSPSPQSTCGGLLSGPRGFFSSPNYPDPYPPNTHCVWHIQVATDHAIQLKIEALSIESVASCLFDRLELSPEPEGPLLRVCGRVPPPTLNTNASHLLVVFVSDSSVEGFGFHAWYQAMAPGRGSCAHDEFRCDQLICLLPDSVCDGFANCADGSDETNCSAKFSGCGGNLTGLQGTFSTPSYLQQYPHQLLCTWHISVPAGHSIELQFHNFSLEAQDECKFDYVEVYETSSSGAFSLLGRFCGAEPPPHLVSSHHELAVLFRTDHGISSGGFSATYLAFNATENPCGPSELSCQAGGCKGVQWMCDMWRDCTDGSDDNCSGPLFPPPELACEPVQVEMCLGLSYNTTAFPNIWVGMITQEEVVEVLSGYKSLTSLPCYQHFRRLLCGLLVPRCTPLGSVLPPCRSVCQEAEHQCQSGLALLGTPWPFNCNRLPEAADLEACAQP
Put plainly: SPR; Biacore T100; biotinylated ligand captured on a streptavidin (SA) Series S chip (~100-200 RU); non-biotinylated analyte in twofold dilutions in HBS-P+; 60 s injection at 30 ul/min, 240 s dissociation; regeneration 2 x 10 sec 2M MgCl2; KD from the fit at equilibrium (steady state). The following applies: both partners purified. In general terms: SPR reads the build-up and loss of mass on a sensor chip optically.

In test [2] the target is T2, ROR1-ECD (transmembrane receptor tyrosine kinase ROR1, extracellular domain) (human, UniProt Q01973 30-406, biotin (BirA biotinylation; captured on streptavidin chip)).
T2 construct: receptor tyrosine kinase ROR1, human, extracellular domain; source: Expi293F, purified (Ni-NTA, SEC), biotinylated in vitro with BirA
The test is described as above. As to conditions: both partners purified.

B1: pleiotrophin (PTN) (ligand, human, UniProt P21246 33-168, looked up)
chain: GKKEKPEKKVKKSDCGEWQWSVCVPTSGDCGLGTREGTRTGAECKQTMKTQRCKIPCNWKKQFGAECKYQFQAWGECDLNTALKTRTGSLKRALHNAECQKTVTISKPCGKLTKPKPQAESKKKKKEGKKQEKMLD
notes: pleiotrophin (PTN), human; source: Expi293F, purified (Ni-NTA, SEC), not biotinylated (SPR analyte)
On to B1, for which the Kd was 1220 nM in test [1] and 1660 nM in test [2].
